Laboratory results taken from paper PMC8840469, “Directed Evolution of a Nonheme Diiron N-oxygenase AzoC for Improving Its Catalytic Efficiency toward Nitrogen Heterocycle Substrates” (Molecules, 2022).

Experiments:
AzoC = system: T1, AzoC; assay: HPLC, initial velocity, Michaelis-Menten fit; format: biochemical, Streptomyces chattanoogensis; settings: 30 °C, 1 h; 5.2 μM enzyme; substrate 0.05-2 mM; general in vitro reaction (not restated for kinetics): NADH 0.1 mM, PMS 0.75 mM, 20 mM HEPES pH 7.5, but 3 μM enzyme; read-out: Substrate: 2-methoxypyrimidin-5-amine / Km
T1 construct: nonheme diiron enzyme
Text: (§1) HPLC, initial velocity, Michaelis-Menten fit on AzoC

COc1ncc(N)cn1 = system: T2, COc1ncc(N)cn1; assay: HPLC, initial velocity, Michaelis-Menten fit; format: biochemical, Streptomyces chattanoogensis; settings: 30 °C, 1 h, 5.2 μM enzyme, substrate 0.05-2 mM, general in vitro reaction (not restated for kinetics): NADH 0.1 mM, PMS 0.75 mM, 20 mM HEPES pH 7.5
T2 construct: nonheme diiron enzyme
Text: as §1

Row | Molecule | Km (AzoC) [µM] | Km (COc1ncc(N)cn1) [µM] | kcat (COc1ncc(N)cn1) [s⁻¹] | kcat/Km (COc1ncc(N)cn1) [M⁻¹ s⁻¹]
1 | COc1ncc(N)cn1 [compound 3, 2-methoxypyrimidin-5-amine] | 510 ± 59 | – | – | –
2 | AzoC (Streptomyces chattanoogensis) | – | 650 ± 120 | 0.018 ± 0.0014 | 27.7
